Experiments:
Format in all cases: cell-based
[1] = test system: GFP(+) MDA-MB-231 (HER2−) cells; experiment: Targeting in a mixed cell culture; conditions: HerDox containing 0.5 uM Dox, day 2
Procedure: (§1) FIGS. 9 (A)-(C) illustrates targeting in a mixed cell culture. As illustrated in FIG. 10 (A), equal numbers of MDA-MB-435 and GFP(+) MDA-MB-231 cells were treated with Dox alone (0.5 uM), Her-Dox (containing 0.5 uM Dox), or HerPBK10 (1.2 ug/well, equivalent to HerPBK10 in HerDox). Wells were assayed for GFP fluorescence (to determine relative MDA-MB-231 number) and crystal violet staining (to determine total cell number). As illustrated in FIG. 9 (B), cell survival was determined by calculating the relative doubling time (DT) of experimental (exp) cells normalized by control (con) cells based on the crystal violet stains (total cells) and GFP fluorescence (MDA-MB-231 cells). The DT of MDA-MB-435 was determined by subtracting the DT of MDA-MB-231 from the total cell DT. Relative survival is shown for Day 2 of treatment. As illustrated in FIG. 9 (C), there is stability in cell culture. Aliquots of culture media containing HerDox (after incubation for the indicated times at 37° C.) were electrophoresed on a 2% agarose gel. HerDox incubated at 37° C. in HEPES-buffered saline, lacking serum, was processed in parallel. Dox fluorescence was visualized by UV excitation. Free Dox (Dox alone) is not retained in the gel whereas Dox incorporated in HerDox is. […]

[2] = test system: MDA-MB-435 (non-GFP, HER2+) cells; experiment: Targeting in a mixed cell culture; conditions: HerDox containing 0.5 uM Dox, day 2
Procedure: as §1

MDA-MB-435 = experiment: Cytotoxicity on cell lines (Table I); conditions: 50% reduction in cell survival, mean ± 1 SD, read-out: EC50** (uM HerDox)
Procedure: (§2) FIGS. 17 (A)-(B) illustrates relative cell surface HER subunit levels and cytotoxicity on cell types. FIG. 17 (A) depicts a graph of relative cell surface HER subunit levels as measured by ELISA. Cells were incubated with anti-HER subunit antibodies followed by HRP-conjugated secondary antibodies using standard procedures. Relative cell numbers were measured by crystal violet staining and quantified by measuring crystal violet absorbance at 590 nm. Relative subunit levels are reported as the ELISA signal of each cell population normalized by the relative cell number, or Abs 450 run/590 nm. FIG. 17 (B) depicts toxicity to cells displaying differential HER2. Cytotoxicities from a range of HerDox doses were assessed on each cell line by metabolic assay and confirmed by crystal violet stain. CD50 values shown in log scale were determined by non-linear regression analyses of HerDox dose curves using a scientific graphing program and confirmed using a calculator. The relative HER2 level of each cell line is shown next to each CD50 value.

SKOV3 = experiment: Cytotoxicity on cell lines (Table I); conditions: 50% reduction in cell survival, mean ± 1 SD, read-out: EC50** (uM HerDox)
Procedure: as §2

T47D = experiment: Cytotoxicity on cell lines (Table I); conditions: 50% reduction in cell survival, mean ± 1 SD, read-out: EC50** (uM HerDox)
Procedure: as §2

[3] = test system: heregulin receptors on MDA-MB-435 (HER2+) cells; experiment: Receptor specificity, competition with free heregulin ligand (eHRG); conditions: eHRG 10× molar excess, HerDox 0.5 uM
Procedure: FIG. 8 illustrates receptor specificity. MDA-MB-435 (HER2+) cells were incubated with free ligand (eHRG) at 10× molar excess of HerDox for 1 h at 4° C. Media was aspirated to remove free eHRG and fresh media containing HerDox (0.5 uM) was added to cells. Cell survival was measured by MTT assay and represented as a % of relative untreated cell numbers.
The inventors compared the effect of HerDox or Dox alone at equivalent dosages (0.5 uM with respect to Dox concentration) on HER2+ and HER2− breast cancer cells in separate dishes. By three days, HerDox reduced HER2+ cell numbers by over 75% whereas HER2− cell survival was unaffected (FIG. 7). […] These findings emphasize the importance of targeting by showing that the untargeted drug affects nontarget (i.e. HER2−) cells. Importantly, the protein carrier, HerPBK10, alone at the equivalent concentration of protein in HerDox (0.1 uM) had no effect on either cell line (FIG. 7), including a lack of proliferation induction. To test receptor targeting, the inventors used free heregulin ligand (Her or eHRG) as a competitive inhibitor. […] As a final in vitro challenge, the inventors tested whether HerDox induces toxicity specifically to HER2+ cells in a mixed culture of HER2+ and HER2− breast cancer cells. […]

B1: HerDox: non-covalent complex of HerPBK10, a small double-stranded nucleic acid and intercalated Dox (conjugate)
chain: LPPRLKEMKSQESAAGSKLVLRCETSSEYSSLRFKWFKNGNELNRKNKPQNIKIQKKPGKSELRINKASLADSGEYMCKVISKLGNDSASANITIVESNEIITGMPASTEGAYVSSESPIRISVSTEGANTSSSTSTSTTGTSHLVKCAEKEKTFCVNGGECFMVKDLSNPSRYLCKCQPGFTGARCTENVPMKVQNQEKAEELYMRRAAMYEEGPPPSYESVVSAAPVAAALGSPFDAPLDPPFVPPRYLRPTGGRNSIRYSELAPLFDTTRVYLVDNKSTDVASLNYQNDHSNFLTTVIQNNDYSPGEASTQTINLDDRSHWGGDLKTILHTNMPNVNEFMFTNKFKARVMVSRLPTKDNQVELKYEWVEFTLPEGNYSETMTIDLMNNAIVEHYLKVGRQNGVLESDIGVKFDTRNFRLGFDPVTGLVMPGVYTNEAFHPDIILLPGCGVDFTHSRLSNLLGIRKRQPFQEGFRITYDDLEGGNIPALLDVDAYQASLKDDTEQGGGGAGGSNSSGSGAEENSNAAAAAMQPVEDMNDHAIRGDTFATRAEEKRAEAEAAAEAAAPAAQPEVEKPQKKPVIKPLTEDSKKRSYNLISNDSTFTQYRSWYLAYNYGDPQTGIRSWTLLCTPDVTCGSEQVYWSLPDMMQDPVTFRSTRQISNFPVVGAELLPVHSKSFYNDQAVYSQLIRQFTSLTHVFNRFPENQILARPPAPTITTVSENVPALTDHGTLPLRNSIGGVQRVTITDARRRTCPYVYKALGIVSPRVLSSRTFKKKKKKKKKK
modifications: left off: small tags and cut ends
notes: non-covalent complex of HerPBK10, a small double-stranded nucleic acid and intercalated Dox
With B1 the “GFP (HER2−) cell growth in mixed culture” value [1] was “not altered”, the “non-GFP (HER2+) cell proliferation in mixed culture” value [2] was “nearly completely reduced” and the EC50 (MDA-MB-435) was 0.74 ± 0.07 µM. For the same molecule, the EC50 (SKOV3) was 0.18 ± 0.03 µM, the EC50 (T47D) was 0.64 ± 0.04 µM and the “cell killing by HerDox in presence of free heregulin ligand” value [3] was “completely inhibited”.
